No end group written: not given here.
Columns and labels:
[1] = test system: Colletotrichum lindemuthianum; format: cell-based; details: C lindemuthianum, 48 hours of incubation
Fusarium culmorum [2] = assay: Stability of the antifungal activity of the Mj-AMPs; format: cell-based
Procedure: Antifungal activity was measured by microspectrophotometry as previously described (Broekaert, WF et al; 1990; FEMS Microbiol Lett, 69, 55-60). Routinely, tests were performed with 20 μl of a (filter-sterilized) test solution and 80 μl of a fungal spore suspension (2×10^4 spores/ml) in half strength Potato Dextrose Broth (Difco). Control microcultures contained 20 μl of (sterile) distilled water and 80 μl of the fungal spore suspension. Unless otherwise stated the test organism was Fusarium culmorum and incubation was done at 25° C. for 48 hours. Percent growth inhibition is defined as 100 times the ratio of the corrected absorbance of the control microculture minus the corrected absorbance of the test microculture over the corrected absorbance at 595 nm of the control microculture. The corrected absorbance values equal the absorbance at 595 nm of the culture measured after 48 hours minus the absorbance at 595 nm measured after 30 min. Values of growth inhibition lower than 10% are not indicated on the chromatograms.
Table 1 summarises the results of further testing of the stability of the antifungal activity of the Mj-AMPs. Tests for antifungal activity were performed with 20 μl samples diluted five-fold with growth medium containing Fusarium culmorum spores (2×10^4 spores/ml), according to the assay method given in Example 2. Control samples contained either Mj-AMP1 at 500 μg/ml or Mj-AMP2 at 100 μg/ml in 10 mM sodium phosphate buffer (pH 7). Reduction was done by addition of DTT at 2.5 mM followed by incubation at 37° C. for 2 hours. pH stability was tested in the following buffers: 20 mM glycine-HCl (pH 2 and 3); 20 mM diethanolamine-HCl (pH 10); and 20 mM glycine-NaOH (pH 11). After 1 hour of incubation in the appropriate buffers the samples were dialyzed for 16 hours against 10 mm sodium phosphate buffer (pH 7). For digestions, proteases were added at 100 μg/ml and incubated at 37° C. for 16 hours.

Phoma betae = format: cell-based; details: P betae, 48 hours of incubation
Venturia inaequalis = format: cell-based; details: V inaequalis, 10 days of incubation
Ascochyta pisi = format: cell-based; details: A pisi, 48 hours of incubation
Botrytis cinerea = format: cell-based; details: B cinerea, 48 hours of incubation
Saccharomyces cerevisiae = assay: Inhibitory activity against yeast; format: cell-based; set-up: key: +++:complete inhibition; +:some inhibition; -:no inhibition
Procedure: The inhibitory activity of Mj-AMPs against yeast, Saccharomyces cerevisiae was tested. The results shown in Table 5 indicate that Mj-AMPs do inhibit the growth of yeast at concentrations of 500 μg/ml or above.

Isoelectric focusing = format: physicochemical; details: isoelectric focusing on Immobiline Dry Strips
Procedure: PAS staining for glycoproteins was done by the method of Zacharius, RM et al (1969; Anal Biochem, 30, 148-152) using ovalbumin (3.2% carbohydrate) as a positive control sample. The pI values of Mj-AMP1 and Mj-AMP2 were determined by isoelectric focusing and found to be about 10.5 for both proteins. Isoelectric focussing was done on precast Immobiline Dry Strips (Pharmacia) using marker proteins in the pI range from 4.7 to 10.6 (Pharmacia).

Pyricularia oryzae = format: cell-based
Alternaria brassicola = format: cell-based; details: A brassicola, 48 hours of incubation
[3] = test system: Pyrenophora tritici-repentis; format: cell-based; details: P tritici-repentis, 48 hours of incubation
Fusarium culmorum [4] = format: cell-based; details: F culmorum, 48 hours of incubation
Nectria haematococca = format: cell-based; details: N haematococca, 48 hours of incubation
[5] = test system: Fusarium oxysporum f.sp. pisi; format: cell-based; details: 48 hours of incubation
[6] = test system: Fusarium oxysporum f.sp. lycopersici; format: cell-based; details: 48 hours of incubation
Erwinia carotovora = assay: Antibacterial activity in vitro test; format: cell-based; details: E carotovora, 48 hours
Procedure: (§1) The antibacterial activity of the Mj-AMPs was tested against a range of gram-positive and gram-negative bacteria: Bacillus megaterium, Sarcina lutea, Escherichia coli and Erwinia carotovora. β-purothionin and UDA were also tested for comparison (see Example 7). Tests were performed in soft agarose medium containing 1% tryptone and, with or without 1 mM CaCl2 and 50 mM KCl. Absorbance, 595 nm, of the culture was measured after 48 hours.

Sarcina lutea = assay: Antibacterial activity in vitro test; format: cell-based; details: S lutea, 48 hours
Procedure: as §1

Bacillus megaterium = assay: Antibacterial activity in vitro test; format: cell-based; details: B megaterium, 48 hours
Procedure: as §1

Escherichia coli = assay: Antibacterial activity in vitro test; format: cell-based; details: E coli, 48 hours
Procedure: as §1

Verticillium dahliae = format: cell-based; details: V dahliae, 48 hours of incubation
[7] = MEDIUM +Ca/K (1 mM CaCl2 and 50 mM KCl)

## Mj-AMP2: antimicrobial protein from Mirabilis jalapa seeds, dimer of two 3.5 kDa subunits, 36 residues, SEQ ID NO:2 (CIGNGGRCNENVGPPYCCSGFCLRQPNQGYGVCRNR; cysteine pairing not given here; also: homodimer)
[1]
  IC50: 1 µg/mL
Fusarium culmorum [2]; 80° C., 10 min
  Relative antifungal activity (shown as % of control activity): 100 % of control activity
Fusarium culmorum [2]; 90° C., 10 min
  Relative antifungal activity (shown as % of control activity): 100 % of control activity
Fusarium culmorum [2]; 100° C., 10 min
  Relative antifungal activity (shown as % of control activity): 100 % of control activity
Fusarium culmorum [2]; Chymotrypsin digestion, 100 μg/ml, 37° C., 16 hours
  Relative antifungal activity (shown as % of control activity): 50 % of control activity
Fusarium culmorum [2]; Control: Mj-AMP1 500 μg/ml or Mj-AMP2 100 μg/ml in 10 mM sodium phosphate buffer pH 7
  Relative antifungal activity (shown as % of control activity): 100 % of control activity
Fusarium culmorum [2]; Pronase E digestion, 100 μg/ml, 37° C., 16 hours
  Relative antifungal activity (shown as % of control activity): 25 % of control activity
Fusarium culmorum [2]; Proteinase K digestion, 100 μg/ml, 37° C., 16 hours
  Relative antifungal activity (shown as % of control activity): 100 % of control activity
Fusarium culmorum [2]; Reduction: DTT 2.5 mM, 37° C., 2 hours
  Relative antifungal activity (shown as % of control activity): < 3 % of control activity
Fusarium culmorum [2]; Trypsin digestion, 100 μg/ml, 37° C., 16 hours
  Relative antifungal activity (shown as % of control activity): 100 % of control activity
Fusarium culmorum [2]; pH 2, 60 min
  Relative antifungal activity (shown as % of control activity): 100 % of control activity
Fusarium culmorum [2]; pH 3, 60 min
  Relative antifungal activity (shown as % of control activity): 100 % of control activity
Fusarium culmorum [2]; pH 10, 60 min
  Relative antifungal activity (shown as % of control activity): 100 % of control activity
Fusarium culmorum [2]; pH 11, 60 min
  Relative antifungal activity (shown as % of control activity): 100 % of control activity
Fusarium culmorum [2]; pronase E
  Sensitivity to protease (in words): most sensitive
Phoma betae
  IC50: 6 µg/mL
Venturia inaequalis
  IC50: 1 µg/mL
Ascochyta pisi
  IC50: 6 µg/mL
Botrytis cinerea
  IC50: 2 µg/mL
Saccharomyces cerevisiae; with Ca/K, 5 μg/ml
  Inhibitory activity against yeast: -
Saccharomyces cerevisiae; with Ca/K, 50 μg/ml
  Inhibitory activity against yeast: +++
Saccharomyces cerevisiae; with Ca/K, 500 μg/ml
  Inhibitory activity against yeast: +++
Saccharomyces cerevisiae; without Ca/K, 5 μg/ml
  Inhibitory activity against yeast: +++
Saccharomyces cerevisiae; without Ca/K, 50 μg/ml
  Inhibitory activity against yeast: +++
Saccharomyces cerevisiae; without Ca/K, 500 μg/ml
  Inhibitory activity against yeast: +++
Isoelectric focusing
  pI: about 10.5
Pyricularia oryzae
  IC50: 0.5 µg/mL
Alternaria brassicola
  IC50: 6 µg/mL
[3]
  IC50: 20 µg/mL
Fusarium culmorum [4]
  IC50: 3 µg/mL
Nectria haematococca
  IC50: 0.5 µg/mL
[5]
  IC50: 5 µg/mL
[6]
  IC50: 10 µg/mL
Erwinia carotovora; [7]
  IC50: > 500 µg/mL
Erwinia carotovora; MEDIUM -Ca/K
  IC50: > 500 µg/mL
Sarcina lutea; [7]
  IC50: > 500 µg/mL
Sarcina lutea; MEDIUM -Ca/K
  IC50: 50 µg/mL
Bacillus megaterium; [7]
  IC50: 10 µg/mL
Bacillus megaterium; MEDIUM -Ca/K
  IC50: 2 µg/mL
Escherichia coli; [7]
  IC50: > 500 µg/mL
Escherichia coli; MEDIUM -Ca/K
  IC50: > 500 µg/mL
Verticillium dahliae
  IC50: 0.5 µg/mL

B1: UDA: known antifungal protein isolated from stinging nettle (Urtica dioica) rhizomes (protein, UniProt P11218 24-372, looked up)
Lectin/endochitinase 1: QRCGSQGGGGTCPALWCCSIWGWCGDSEPYCGRTCENKCWSGERSDHRCGAAVGNPPCGQDRCCSVHGWCGGGNDYCSGSKCQYRCSSSVRGPRVALSGNSTANSIGNVVVTEPLFDQMFSHRKDCPSQGFYSYHSFLVAAESFPAFGTIGDVATRKREVAAFLAHISQATSGERSDVENPHAWGLCHINTTTVTENDFCTSSDWPCAAGKKYSPRGPIQLTHNFNYGLAGQAIGEDLIQNPDLVEKDPIISFKTALWFWMSQHDNKPSCHDIVLNANSAANRIPNKGVIGNIISRAFGHDDFAVRSSSIGFYKRYCDMLGVSYGHDLKYWFDNTPSSEFQRIQMRVAA
[1]
  IC50: 20 µg/mL
Phoma betae
  IC50: 50 µg/mL
Venturia inaequalis
  IC50: 1,000 μg/ml
Ascochyta pisi
  IC50: 1,000 μg/ml
Botrytis cinerea
  IC50: > 1,000 μg/ml
Alternaria brassicola
  IC50: 200 µg/mL
[3]
  IC50: 200 µg/mL
Fusarium culmorum [4]
  IC50: > 1,000 μg/ml
Nectria haematococca
  IC50: 200 µg/mL
[5]
  IC50: > 1,000 μg/ml
Erwinia carotovora; [7]
  IC50: > 500 µg/mL
Erwinia carotovora; MEDIUM -Ca/K
  IC50: > 500 µg/mL
Sarcina lutea; [7]
  IC50: > 500 µg/mL
Sarcina lutea; MEDIUM -Ca/K
  IC50: > 500 µg/mL
Bacillus megaterium; [7]
  IC50: > 500 µg/mL
Bacillus megaterium; MEDIUM -Ca/K
  IC50: 250 µg/mL
Escherichia coli; [7]
  IC50: > 500 µg/mL
Escherichia coli; MEDIUM -Ca/K
  IC50: > 500 µg/mL
Verticillium dahliae
  IC50: 80 µg/mL
